{"source": "patent US20030157553A1", "about": "“Methods of assaying for G protein-coupled receptor ligands and modulators” (priority 2000, published 2003)", "molecules": {"B1": {"name": "β-arrestin-(Arg169→Glu): bovine β-arrestin mutant Arg169→Glu that reverses the charge of the putative phosphorylation-sensitive trigger (protein)", "chain": "MGDKGTRVFKKASPNGKLTVYLGKRDFVDHIDLVEPVDGVVLVDPEYLKERRVYVTLTCAFRYGREDLDVLGLTFRKDLFVANVQSFPPAPEDKKPLTRLQERLIKKLGEHAYPFTFEIPPNLPCSVTLQPGPEDTGKACGVDYEVKAFCAENLEEKIHKRNSVRLVIEKVQYAPERPGPQPTAETTRQFLMSDKPLHLEASLDKEIYYHGEPISVNVHVTNNTNKTVKKIKISVRQYADICLFNTAQYKCPVAMEEADDTVAPSSTFCKVYTLTPFLANNREKRGLALDGKLKHEDTNLASSTLLREGANREILGIIVSYKVKVKLVVSRGGLLGDLASSDVAVELPFTLMHPKPKEEPPHREVPEHETPVDTNLIELDTNDDDIVFEDFARQRLKGMKDDKEEEEDGTGSPRLNDR"}}, "key": {"β2AR [1]": {"system": "β2AR", "assay": "Agonist affinity shift assay ([125I] iodopindolol), formation of high agonist affinity complex (HAC)", "assay_type": "binding", "conditions": "1 μM arrestin, FIG. 2A", "excerpt": "(§1) Mutagenesis and Biochemical Characterization of β-Arrestins—Mutations Arg169→Glu (CGG→GAG), Gln394→Ter (CAA→TAA), and Asp383→Ter (GAT→TAG) were introduced by polymerase chain reaction in β-arrestin construct pBARR (Gurevich et al. (1995) J. Biol. Chem. 270:720-731), that was used for in vitro transcription and translation, as described (Gurevich et al. (1995), supra). NcoI/HindIII 1404-base pair open reading frame was then subdloned into appropriately digested Escherichia coliexpression vector pTrcHisB (Invitrogen). […]\nAgonist Affinity ShiftAssay—P-β2AR or β2AR (10-15 fmol/assay) was incubated in 0.25 ml of 10 mM Tris-HCl, pH 7.4, 100 mM NaCl (buffer A) containing 0.1 mg/ml bovine serum albumin in the presence of 65-75 fmol of [^125I] iodopindolol (NEN Life Science Products) and the indicated concentrations of arrestins and agonists for 60 min at 22° C. […] Receptor-containing liposomes with bound radioligand were eluted with buffer A (between 0.6 and 1.5 ml), and radioactivity was quantitated in a liquid scintillation counter. Nonspecific binding was determined in the presence of 10 μM alprenolol. […]"}, "β2AR [2]": {"system": "β2AR", "assay": "Direct binding assay of in vitro translated tritiated arrestins to purified β2AR reconstituted into phospholipid vesicles", "conditions": "unphosphorylated β2AR, activated by 0.1 mM agonist isoproterenol; FIG. 1A", "excerpt": "as §1\nDirect Binding Assay—In vitro translated tritiated arrestins (50 fmol) were incubated in 50 mM Tris-HCl, pH 7.5, 0.5 mM MgCl2, 1.5 mM dithiothreitol, 50 mM potassium acetate with 7.5 pmol of the various functional forms of rhodopsin or with P-β2AR or β2AR (100 fmol/assay) in a final volume of 50 μl for 5 min at 37° C. in room light (rhodopsin) or for 60 min at 30° C. in the presence of 0.1 mM -agonist isoproterenol. […] Nonspecific binding determined in the presence of 0.3 μg of liposomes was subtracted."}}}
{"molecule": "B1", "values": [{"measurement": "percentage of HAC formed by unphosphorylated β2AR", "setting": "β2AR [1]", "result": "22±4", "unit": "%"}, {"measurement": "binding to activated unphosphorylated receptor", "setting": "β2AR [2]", "result": "significantly higher binding"}]}
